Our source for the self-cleavage values is the RNAGym collection of RNA variant scans (doi:10.7554/elife.80360).

To fix the notation:
B1: HDV Ribozyme (parent)
chain: GGCCGGCAUGGUCCCAGCCUCCUCGCUGGCGCCGGCUGGGCAACAUUCCGAGGGGACCGUCCCCUCGGUAAUGGCGAAUGGGACCCA

The variants in this data set derive from B1. The experiment in a line: self-cleavage, relative activity (ratio to wild type); higher = more cleavage; co-transcriptional.
On to G59U G80A, for which the self-cleavage was found to be 0.295.

For the variant U27C C44A, the self-cleavage turned out to be 0.447. Under C21A A51G stands 0.0326; under G28A C41U, 0.0875. Next, C30U A71U: 0.372; G28U G76U: 0.187. Under G11A G52C stands 0.521; under G10C C41G, 0.437.

On to U46G A70G, for which the self-cleavage is 0.511.

For the variant G31A G50A, the self-cleavage amounted to 0.626. Under G2U C61A stands 0.0913; under G2U C63A, 0.101; under U65A A70G, 1.05. Next, C14G G82A: 0.158.

For C22U C66A, the self-cleavage is 0.758.

C32A A78G: the self-cleavage was 0.113. Consider C13A A43C, for which the self-cleavage was 0.135. Under C24U C26A stands 0.955; under G38U C58A, 0.164.

For G38U C58G, the self-cleavage was 0.306. As for C4G G6U, the self-cleavage was found to be 0.0237. Under A43U G76C stands 0.181. Next, C48U A87C: 0.989; G2U C30G: 0.0601. Under G10U U46G stands 0.597; under G1C G53C, 0.332.

C33G G74U: the self-cleavage came out at 0.173. Under C32U C44A stands 0.243; under C7U, 0.86.

For C44G C85A, the self-cleavage came to 0.525. Next, C14U A16C: 1.07; A45U C49A: 0.748. For C14A G67U, the self-cleavage is 0.532. Take C21U G50U: the self-cleavage was 0.141.

As to C61A G80U, the self-cleavage worked out at 0.203. Next, G50U C57A: 0.911. Under G40C U69C stands 0.158; under G31C G68U, 0.233; under C36A G80A, 0.12. Under C33A U79C stands 0.0893; under C3A C15G, 0.237; under C3G C85A, 0.858. For the variant C49A C57U, the self-cleavage came to 1.15. As for A70C G82A, the self-cleavage is 0.181. On to G38U C49A, for which the self-cleavage is 0.264. On to C21U C22G, for which the self-cleavage is 0.0264. Next, C14U G50A: 1.01; G34C G59U: 0.0415; A71C G81A: 0.309. Under A42C G80A stands 0.234. Take G38C G80C: the self-cleavage was 0.145. For the variant G59U G82A, the self-cleavage amounted to 0.338. For the variant G5A G35A, the self-cleavage is 0.0692. Under G5C G80A stands 0.256; under C41G G50U, 0.708.

With A42U C86U, the self-cleavage turned out to be 0.58. On to C18A G39U, for which the self-cleavage was 0.0369. Next, C41A C86A: 0.815; G25U G50U: 0.0361. For the variant C21U A83G, the self-cleavage stood at 0.124. Consider C26U G81C, for which the self-cleavage amounted to 0.748. Under C7U U47G stands 0.9; under U60A G73A, 0.751; under C57U A87U, 1.01. U46A C57A: the self-cleavage was determined as 0.851. Under C21A C44A stands 0.0604; under U47C U65G, 0.856.

For the variant C66U A71C, the self-cleavage amounted to 0.54. Under A8C U79G stands 0.462; under C26A G50C, 1.16.

A16C G76C: the self-cleavage was found to be 0.731. Under U46A G81A stands 0.271; under C19U A45U, 0.136; under G59A U65C, 1.14. As for G31A G34U, the self-cleavage was determined as 0.0863. For C36U G54U, the self-cleavage was found to be 0.796. As to A8C U23G, the self-cleavage was 0.332. Next, C49A G52A: 0.739. For the variant C62G A70C, the self-cleavage was 0.554.

With C18G G68U, the self-cleavage amounted to 0.0978.

For the variant A42C C57U, the self-cleavage was 0.203.

For A51C G52C, the self-cleavage is 0.332.

As for G34C C75A, the self-cleavage came to 0.131. In the case of G17C G81U, the self-cleavage is 0.193.

With C15A U79C, the self-cleavage turned out to be 0.326. In the case of G2A C4U, the self-cleavage stood at 0.163. G1U G59A: the self-cleavage was found to be 0.442. For C7A G68C, the self-cleavage amounted to 0.341. Under U23A G67U stands 0.849; under C24G G50C, 0.0755.

With G29A C57U, the self-cleavage was determined as 0.234. Under G29C G31A stands 0.0875; under A78U G81U, 0.269; under C32G U60A, 0.131.

For the variant G5C C33U, the self-cleavage came to 0.386. As to C13U C21A, the self-cleavage is 0.192. Next, C44A A78U: 0.104. For the variant C13A C75A, the self-cleavage was found to be 0.0573. Under C48A G67A stands 1.04. Next, U60A C63U: 0.972; U27C C85U: 1.04. Under U60C C61A stands 0.831; under G5A C48U, 0.0405. With G2A A45U, the self-cleavage is 0.111.

A8U A42U: the self-cleavage stood at 0.314. Consider C7A C21A, for which the self-cleavage worked out at 0.0791.

As for C7G G54U, the self-cleavage amounted to 0.219. As for G40U U69C, the self-cleavage is 0.91. For A43G G68C, the self-cleavage was determined as 0.253.

For the variant U72G G81U, the self-cleavage stood at 0.178. Next, C30G: 0.0914; C30A: 0.547.

For the variant C44A U72A, the self-cleavage worked out at 0.733.

As for C26G G59A, the self-cleavage came out at 0.903. Take G80C A83G: the self-cleavage came to 0.102. Next, C21A C26A: 0.0739.

With C61A C63A, the self-cleavage was determined as 0.689. Consider C36G G76C, for which the self-cleavage stood at 0.0692. Regarding G6A U37G, the self-cleavage turned out to be 0.128. Under C4A C33A stands 0; under G5U C19A, 0.256; under U23G C41A, 0.465.

For C21U U79C, the self-cleavage amounted to 0.0573.

For G28C G80A, the self-cleavage was 0.193. Under C41G C84G stands 0.665; under C57G G74A, 0.277. Under U37C U69G stands 1.19. Take G31C G74C: the self-cleavage is 0.106. Regarding C24U G29U, the self-cleavage is 0.0594. In the case of G2U G76C, the self-cleavage stood at 0.0279. Under C14G A70U stands 0.529; under A16U G17U, 0.589. Next, C48A C64G: 0.786; C49G C61A: 0.848; A16C C63U: 0.895. Under G31A A51U stands 0.283; under C24A C57A, 0.842; under G54C C75G, 0.151. As for U9C C18G, the self-cleavage came out at 0.138. Next, U9G G11U: 0.532.

With A42G C62A, the self-cleavage amounted to 0.35. Turning to G5U G38C, the self-cleavage was determined as 0.0875. Take G5A G38C: the self-cleavage turned out to be 0.208.

In the case of G38C C62A, the self-cleavage came out at 0.354. Next, C14U G38A: 0.0652; C7G C84G: 0.0665.

In the case of C21U C84G, the self-cleavage amounted to 0.122. As to G6C U20C, the self-cleavage came to 0.0923. On to C64U G81A, for which the self-cleavage was determined as 0.318. Under A16U A45G stands 0.982. Turning to C7A A16U, the self-cleavage was 0.499. With G35U G67U, the self-cleavage came out at 0.391. Under C33U A43G stands 0.227; under G73C C86A, 0.641; under C41G C48U, 0.649.

Take A42C A43G: the self-cleavage is 0.0898. Next, G2A U65A: 0.173; U12A G76A: 0.499. In the case of G6A C62G, the self-cleavage turned out to be 0.441. For C32A U72G, the self-cleavage came out at 0.178. Next, C41G C75G: 0.219. With G34U A43U, the self-cleavage was determined as 0.104. For G29U C36A, the self-cleavage was 0.187.

Consider G5C C21G, for which the self-cleavage worked out at 0.125. As for C30A U37A, the self-cleavage is 0.

Turning to G6U G59A, the self-cleavage came to 0.544. Under U47G G68U stands 1.01.
